Experimental data reported in paper PMC3945083.

Key:
[1] = molecular target: PARP-1 (purified) (UniProt P09874 1-1014); experiment: pull-down
[2] = molecular target: Flag-PARP-1 (UniProt P09874 1-1014); experiment: EMSA
Sequence of Flag-PARP-1 (P09874 whole entry): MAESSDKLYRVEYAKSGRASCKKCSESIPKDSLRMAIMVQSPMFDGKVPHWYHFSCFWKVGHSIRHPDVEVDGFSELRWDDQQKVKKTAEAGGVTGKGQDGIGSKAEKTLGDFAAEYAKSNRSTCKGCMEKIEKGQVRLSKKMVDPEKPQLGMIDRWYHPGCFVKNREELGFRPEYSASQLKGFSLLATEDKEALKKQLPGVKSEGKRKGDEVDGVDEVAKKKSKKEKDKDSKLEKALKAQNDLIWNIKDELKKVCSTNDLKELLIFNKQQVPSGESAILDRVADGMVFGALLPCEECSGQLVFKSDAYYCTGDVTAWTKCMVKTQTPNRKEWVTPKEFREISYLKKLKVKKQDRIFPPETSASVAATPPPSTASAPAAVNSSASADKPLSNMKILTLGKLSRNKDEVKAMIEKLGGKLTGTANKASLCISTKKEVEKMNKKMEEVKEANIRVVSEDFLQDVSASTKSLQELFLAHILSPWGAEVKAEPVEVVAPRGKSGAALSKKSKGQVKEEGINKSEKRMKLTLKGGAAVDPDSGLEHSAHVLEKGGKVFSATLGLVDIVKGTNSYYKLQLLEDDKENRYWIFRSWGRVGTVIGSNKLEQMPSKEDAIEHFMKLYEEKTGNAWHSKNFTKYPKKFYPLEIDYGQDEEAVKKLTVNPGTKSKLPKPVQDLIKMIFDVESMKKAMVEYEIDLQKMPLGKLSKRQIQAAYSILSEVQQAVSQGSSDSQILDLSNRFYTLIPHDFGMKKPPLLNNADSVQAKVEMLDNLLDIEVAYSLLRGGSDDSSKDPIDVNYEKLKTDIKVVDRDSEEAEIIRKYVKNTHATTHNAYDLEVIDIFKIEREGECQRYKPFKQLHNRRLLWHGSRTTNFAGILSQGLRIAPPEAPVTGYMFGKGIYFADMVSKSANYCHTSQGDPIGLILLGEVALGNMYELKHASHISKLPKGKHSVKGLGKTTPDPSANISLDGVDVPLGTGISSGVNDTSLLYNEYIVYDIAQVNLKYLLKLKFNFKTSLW

Sequence of PARP-1 (purified) (P09874 whole entry): as above

B1: WT NQO1-ARE (dsDNA)
DNA 1: AAATCGCAGTCACAGTGACTCAGCAGAATCTGAGCCTAGGG
DNA 2: CCCTAGGCTCAGATTCTGCTGAGTCACTGTGACTGCGATTT
binding result [1]: binds
binding result [2]: binds
